Results on one molecule are retold here after patent US20240102068A1, “C-GLYCOSYLTRANSFERASE VARIANTS AND USE THEREOF” (KOREA ADVANCED INSTITUTE OF SCIENCE AND TECHNOLOGY, priority 2021, published 2024).

The subject of one series is aloesone. Put plainly: Aloesin production from aloesone by GtCGT and variants in E. coli BL21(DE3), flask culture. Format: cell-based. The procedure: Also, in LC-MS/MS for aloesin analysis, MS (Agilent 6550 iFunnel Q-TOF LC/MS System) coupled with ultra HPLC (UHPLC; 1290 Infinity II LC System; Agilent) was used. Here, an Eclipse-plus C18 column was used, and 0.1% formic acid was used as buffer A, and acetonitrile to which 0.1% formic acid was added was used as buffer B.
Thereafter, in order to test the production of aloesin, the pCDF-GtCGT or pCDF-GtCGT^V93Q/Y193F plasmid was transformed into the BL21(DE3) strain containing pWAS-anti-pabA, pRSF-RpALS, and pBBR1-zwf plasmids, followed by flask culture.
Similarly to the test for increased production of aloesone, RpALS was additionally introduced to increase aloesin production. To this end, pCDF-RpALS-GtCGT^V93Q/Y193F was constructed instead of introducing pCDF-GtCGT^V93Q/Y193F. Specifically, RpALS was amplified from pCDF-RpALS using pCDFDuet F and pCDFDuet R primers, and inserted into the NcoI and BamHI sites of the pCA plasmid through Gibson assembly. Thereafter, four plasmids, namely pRSF-RpALS, pCDF-RpALS-GtCGT^V93Q/Y193F, pWAS-anti-pabA, and pBBR1-zwf, were transformed into E. coli BL21(DE3), which was named an ALS strain.
(§1) Mutagenesis for a specific sequence was performed in the same manner as in Example 2. Here, plasmids containing gene mutants were constructed using pCDF-RpALS-GtCGT^V93Q/Y193F as a template and using primer pairs shown in Table 11 below. The plasmids thus constructed were transformed into the BL21 (DE3) strain along with three plasmids, namely pWAS-anti-pabA, pRSF-RpALS, and pBBR1-zwf, followed by flask culture under the same conditions as in Example 3 using the strains thus constructed. The concentration of aloesin produced was measured in an MRM mode of the HPLC Triple Quadrupole Mass Spectrometer (LCMS-8050, Shimadzu) of the KAIST Biocore Center.
as §1, with “13” for “11”

A short description of series [1]: KM and Vmax of purified GtCGT enzymes, FK converted into dcII, UDP-Glo Glycosyltransferase Assay. Format: biochemical, Gentiana triflora. The conditions noted are these: substrate FK.
Protocol: The purified enzyme was buffer-exchanged with an enzyme storage solution (50 mM HEPES, 20% glycerol, pH 7.5) using Amicon Ultra-15 Centrifugal Filters (regenerated cellulose, 50,000 NMWL; Merck), and in order to calculate KM and Vmax values, FK was converted into dcII using the purified enzyme. Here, a UDP-Glo Glycosyltransferase Assay Kit (Promega) was used to determine the extent of reaction. Since this kit enables measurement of free UDP generated as a reaction byproduct by luminescence, 200 μL of an enzyme reaction solution containing 0.1 μM enzyme and various concentrations of FK (50 mM HEPES, 0.1 mM UDP-glucose, 5 mM MgCl2, pH 7.5) was allowed to react at 25° C. for 1 hour, 25 μL thereof was taken out, and the amount of emitted light was measured using the kit.
For a further series, the system named is FK. Kind of series: dcII production from FK by C-glycosyltransferase candidates and GtCGT mutants in FK-producing E. coli, flask culture. The class given is cell-based. The conditions noted are these: flask culture. On the procedure: Flask culture was carried out under the following conditions. Colonies were seeded into 10 mL of LB medium supplemented with appropriate concentrations of antibiotics, followed by culture overnight at 37° C. The culture fluid thus prepared was passaged into a 250 mL baffled flask containing 50 mL of R/2 medium supplemented with 3 g/L yeast extract and 20 g/L glucose (with 0.45 g/L ascorbic acid if necessary), followed by culture at 30° C. and 200 rpm. The composition of R/2 medium (pH 6.8) was as follows (per liter): 2 g of (NH4)2HPO4, 6.75 g of KH2PO4, 0.85 g of citric acid, 0.7 g of MgSO4·7H2O, and 5 ml of trace metal solution (TMS) [10 g of FeSO4·7H2O, 2.25 g of ZnSO4·7H2O, 1 g of CuSO4·5H2O, 0.5 g of MnSO4·5H2O, 0.23 g of Na2B4O7·10H2O, 2 g of CaCl2·2H2O, and 0.1 g of (NH4)6Mo7O24 per liter of 5 M HCl]. When OD600 of the culture fluid reached 0.6-0.8, 1 mM isopropyl β-D-1-thiogalactopyranoside (IPTG) was added to induce exogenous gene expression, followed by culture for 48 hours.
After culture, production analysis was performed under the following conditions. After flask culture, 50 mL of the culture fluid was centrifuged at 4,000 g for 30 minutes, and then the supernatant was desalted and concentrated. Here, Oasis HLB cartridges (Water) were used. The supernatant was concentrated 1-fold for FK, 30-fold for KA, 45-fold for dell, and 200-fold for carminic acid. The concentrated sample was re-dissolved in an appropriate volume of DMSO and impurities were then removed therefrom using a 0.22 μm PTFE filter. The prepared sample was analyzed by MS (LC/MSD VL; Agilent) coupled with HPLC (1100 series; Agilent). An Eclipse XDB-C18 column was used, 0.1% formic acid was used as buffer A, and methanol was used as buffer B. Analysis was performed in an ESI negative mode. For more accurate analysis of carminic acid, LC-MS/MS was performed using an HPLC Triple Quadrupole Mass Spectrometer (LCMS-8050, Shimadzu) (MRM mode).
Flask culture started by seeding colonies from LB agar plates into test tubes containing 10 mL of LB. As such, an appropriate concentration of antibiotics was added, followed by culture overnight at 37° C. at 220 rpm. 1 mL of the seed culture thus prepared was inoculated into a 250 mL baffled flask containing 50 mL of R/2 medium (supplemented with 3 g/L yeast extract and 20 g/L glucose), followed by culture at 30° C. and 200 rpm. The composition of R/2 medium was as follows (pH 6.8, per 1 L): 2 g of (NH4)2HPO4, 6.75 g of KH2PO4, 0.85 g of citric acid, 0.8 g of MgSO4·7H2O, and 5 ml of trace metal solution (TMS). The composition of TMS was as follows (based on 0.1 M HCl, per 1 L): 10 g of FeSO4·7H2O, 2.25 g of ZnSO4·7H2O, 1 g of CuSO4·5H2O, 0.58 g of MnSO4·5H2O, 0.02 g of Na2B4O7·10H2O, 2 g of CaCl2·2H2O, and 0.1 g of (NH4)6Mo7O24·4H2O. When OD600 of the culture fluid reached 0.6-0.8, 0.5 mM IPTG was added to induce exogenous enzyme expression, followed by culture for 48 hours. In all experiments for producing flavokermesic acid, kermesic acid, dcII, and carminic acid, 0.45 g/L of ascorbic acid was further added.
The production of carminic acid (CA) from FK was performed by two biosynthesis pathways, both of which require monooxygenase and C-glycosyltransferase. FK may be oxidized into KA or may be C-glycosylated into dcII. […] In order for the enzyme to have activity, however, it must be glycosylated, and since it also has a transmembrane helix and a signal peptide, successful expression in cells such as E. coli is considered difficult.
For the enzymes selected above, pCDF-DcCGT, pCDF-MiCGT, pCDF-SfCGT, pCDF-EnCGT, pCDF-OsCGT, pCDF-FeCGT, pCDF-GmCGT, pCDF-AvCGT, pCDF-AvCGT, pCDF-ZmCGT, and pCDF-GtCGT were constructed, and all genes except for the iroB gene amplified from genomic DNA of E. coli Nissle using the iroB_gib_F primer and the iroB_gib_R primer were artificially synthesized and inserted into the NdeI site of the pCDFDuet-1 plasmid using Gibson assembly. […]

The test system of the next series is naringenin. Kind of series: Conversion of naringenin to naringenin-6-C-glucoside by intracellularly expressed enzyme, flask culture. The class given is cell-based, E. coli. On the procedure:
(§2) As such, 70 μM luteolin, 0.5 mM naringenin, or 185.2 μM apigenin was co-administered, followed by culture for an additional 36 hours. The amounts of substrate and product were analyzed by LC-MS. Flask culture was carried out in a 250 mL baffled flask containing 50 mL of R/2 medium (supplemented with 3 g/L yeast extract and 20 g/L glucose), and culture was performed at 30° C. and 200 rpm.

The next series deals with apigenin. Put plainly: Conversion of apigenin to vitexin by intracellularly expressed enzyme, flask culture. Format: cell-based, E. coli. On the procedure:
as §2

For the next series, the system named is luteolin. Put plainly: Conversion of luteolin to isoorientin by intracellularly expressed enzyme, flask culture. The class given is cell-based, E. coli. On the procedure: as §2

B1: GtCGT^V93Q/Y193F: GtCGT variant with substitutions V93Q and Y193F (SEQ ID NO: 61) (protein)
chain: MGSLTNNDNLHIFLVCFIGQGVVNPMLRLGKAFASKGLLVTLSAPEIVGTEIRKANNLNDDQPIKVGSGMIRFEFFDDGWESVNGSKPFDVWQYINHLDQTGRQKLPIMLKKHEETGTPVSCLILNPLVPWVADVADSLQIPCATLWVQSCASFSAYYHYHHGLVPFPTESEPEIDVQLPGMPLLKYDEVPDFLHPRTPYPFFGTNILGQFKNLSKNFCILMDTFYELEHEIIDNMCKLCPIKPIGPLFKIPKDPSSNGITGNFMKVDDCKEWLDSRPTSTVVYVSVGSVVYLKQEQVTEMAYGILNSEVSFLWVLRPPSKRIGTEPHVLPEEFWEKAGDRGKVVQWSPQEQVLAHPATVGFLTHCGWNSTQEAISSGVPVITFPQFGDQVTNAKFLVEEFKVGVRLGRGELENRIITRDEVERALREITSGPKAEEVKENALKWKKKAEETVAKGGYSERNLVGFIEEVARKTGTK
modifications: GtCGT V93Q/Y193F (GtUF6CGT1V93Q/Y193F) variant
Turning to B1, the aloesin production with aloesone (BL21(DE3) with pWAS-anti-pabA, pRSF-RpALS, pBBR1-zwf and pCDF-GtCGT variant plasmid) was found to be 0.06 µg/L. For the same molecule, the “aloesin amount compared with strain containing GtCGT” value with aloesone (flask culture) is reported as “greater amount of aloesin than the strain containing GtCGT”. For the same molecule, the “Vmax/KM value increase compared to GtCGT” value in series [1] stood at 46.8%. The “dcII production increase compared to wild-type GtCGT” value in the series on FK (FK strain) is on record as 5.3 fold. Further, the dcII production in the series on FK (FK-producing E. coli strain) is 0.74 mg CA eq/L. The molecule also came in with a naringenin-6-C-glucoside produced in the series on naringenin (from 0.5 mM naringenin, 36 hours, with pBBR1-galU-pgm-ndk) of 51.6 µM. In addition, the figures for the conversion rate with naringenin (naringenin to naringenin-6-C-glucoside), with apigenin (apigenin to vitexin) and with luteolin (luteolin to isoorientin) were 10.3%, 8.1% and 27.9%, respectively. Moreover, the vitexin produced in the series with apigenin (from 185.2 μM apigenin, 36 hours, with pBBR1-galU-pgm-ndk) stood at 15.0 µM. This molecule had an isoorientin produced with luteolin (from 70 μM luteolin, 36 hours, with pBBR1-galU-pgm-ndk) of 27.9 µM.
